Blank lines part the entries; values can stand above or below the binder they belong to.
Target: recombinant human CD3 (human) (UniProt P07766)
Assay: SPR (Biacore T200, 37 degrees C), antibody captured by anti-human Fc, antigen as analyte, 1:1 model

recombinant human CD3 (human), sequence (P07766 23-126): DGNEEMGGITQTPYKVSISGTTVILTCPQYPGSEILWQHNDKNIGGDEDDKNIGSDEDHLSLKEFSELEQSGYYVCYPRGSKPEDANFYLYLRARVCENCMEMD

Kd: 17.8 nM | koff: 0.00151 s⁻¹ | kon: 85000 M⁻¹ s⁻¹
B1: GPC3/CtrlxCD3 trispecific antibody (protein, from a related filing, part only)
VH 1: QVQLVESGGGLVQPGRSLRLSCAASGFTFSNAWMHWVRQAPGKGLEWVAQIKDRANSYNTYYAESVKGRFTISRDDSKNSIYLQMNSLKTEDTAVYYCRYVHYTTYAGSSFSYGVDAWGQGTTVTVSS
VL 1: DIVMTQSPLSLPVTPGEPASISCRSSQPLVHSNRNTYLHWYQQKPGQAPRLLIYKVSNRFSGVPDRFSGSGSGTDFTLKISRVEAEDVGVYYCGQGTQVPYTFGQGTKLEIK
VH 2: QVQLVQSGAEVKKPGASVTVSCKASGYTFTDYEMHWIRQPPGEGLEWIGAIDGPTPDTAYSEKFKGRVTLTADKSTSTAYMELSSLTSEDTAVYYCTRFYSYTYWGQGTLVTVSS
VL 2: B1 VL 1
modifications: left off: another chain or arm of the molecule; a dimerising Fc or GST

Kd: 17.5 nM | koff: 0.00147 s⁻¹ | kon: 83700 M⁻¹ s⁻¹
B2: Ctrl/CtrlxCD3 trispecific antibody (protein, part only; not given: Control arm variable domains, constant regions, part only)
VH: B1 VH 1
VL: B1 VL 1
